Source: EP4736886A1, “METHOD FOR PREPARING ANTIBODY-SMALL MOLECULE DRUG CONJUGATE AND USE THEREOF” (priority 2023, dated 2025)

Assays:
[1] = tested on: OVCAR-3 cells; assay: Cell killing assay, cell viability by CellTiter-Glo; format: cell-based, human; conditions: 5 days at 37°C; compared to Antibody 1-DXd, FIG. 11
Method: OVCAR-3 cells were seeded into a 96-well plate at a density of 5,000 cells per well and cultured overnight at 37°C. Antibody 1-DXd, Mutant 22-DXd, Mutant 23-DXd, Mutant 37-DXd, Mutant 38-DXd, Mutant 39-DXd, and Mutant 40-DXd were serially diluted and added to the 96-well plate containing OVCAR-3 cells, followed by incubation at 37°C for 5 days. Cell viability was measured using CellTiter-Glo (Promega) to evaluate the killing effects of the antibody-drug conjugates.

[2] = Hydrophobic interaction chromatography and LC-MS analysis of drug loading; format: physicochemical; conditions: after TCEP reduction and conjugation with maleimide-GGFG-DXd
Method: Antibody 1 and Antibody 2 were separately incubated with TCEP (Sigma) to reduce and open the disulfide bonds between the two heavy chains, followed by the addition of maleimide-GGFG-DXd (MedChemExpress) for conjugation. The conjugates were then purified using a desalting column to remove excess small-molecule drug.

[3] = Size-exclusion chromatography analysis of aggregate formation; format: physicochemical; conditions: DXd conjugates, FIG. 7 and FIG. 9
Method: Size-exclusion chromatography analysis was performed. […]
Based on Antibody 3 and Antibody 4, amino acid residues with different properties were inserted between the cysteine residues at positions 4 and 5. Specifically: nonpolar amino acids, exemplified by the insertion of two alanine residues (A); polar uncharged amino acids, exemplified by the insertion of two serine residues (S); basic amino acids, exemplified by the insertion of two lysine residues (K); and acidic amino acids, exemplified by the insertion of two glutamic acid residues (E) or two aspartic acid residues (D), as shown in Table 5. The different mutants were expressed and purified. […]
The different mutants listed in Table 6 were expressed and purified. […] The thermal stability of these ten heavy-chain antibodies was further evaluated using dynamic light scattering (DLS). A DLS (Wyatt) instrument was used to monitor light scattering of the antibodies during heating from 25 °C to 85 °C, thereby determining the aggregation temperature (Tagg) of the antibodies.
VHH1 was separately linked to the engineered human IgG2 Fc or the engineered human IgG4 Fc shown in Table 7 to construct heavy-chain antibodies. After expression and purification, Mutant 37, Mutant 38, Mutant 39, and Mutant 40 were obtained.

Row | Molecule | killing effect on OVCAR-3 cells [1] | drug-to-antibody ratio (DAR) value [2] | size-exclusion chromatography peak profile after conjugation [3]
1 | Mutant 37-DXd (conjugate) heavy: QVQLVESGGGLVQPGGSLRLSCAASGITFPVNAYGWYRQAPGKQRDLVAIISAGGTTNYADSVKGRFTISRDNSKNTLYLQMNSLRAEDTAVYYCYLQRRIGMLRDYWGQGTQVTVSSERKCDDCVECPPCPERKCCVECPPCPAPPVAGPSVFLFPPKPKDTLMISRTPEVTCVVVDVSHEDPEVQFNWYVDGVEVHNAKTKPREEQFNSTFRVVSVLTVVHQDWLNGKEYKCKVSNKGLPAPIEKTISKTKGQPREPQVYTLPPSREEMTKNQVSLTCLVKGFYPSDIAVEWESNGQPENNYKTTPPMLDSDGSFFLYSKLTVDKSRWQQGNVFSCSVMHEALHNHYTQKSLSLSPGK | significantly enhanced killing effect | 8 | normal
2 | Mutant 38-DXd (conjugate) heavy: QVQLVESGGGLVQPGGSLRLSCAASGITFPVNAYGWYRQAPGKQRDLVAIISAGGTTNYADSVKGRFTISRDNSKNTLYLQMNSLRAEDTAVYYCYLQRRIGMLRDYWGQGTQVTVSSERKCEECVECPPCPERKCCVECPPCPAPPVAGPSVFLFPPKPKDTLMISRTPEVTCVVVDVSHEDPEVQFNWYVDGVEVHNAKTKPREEQFNSTFRVVSVLTVVHQDWLNGKEYKCKVSNKGLPAPIEKTISKTKGQPREPQVYTLPPSREEMTKNQVSLTCLVKGFYPSDIAVEWESNGQPENNYKTTPPMLDSDGSFFLYSKLTVDKSRWQQGNVFSCSVMHEALHNHYTQKSLSLSPGK | significantly enhanced killing effect | 8 | normal
